Legend:
[1] = hGH aggregation during FLM, SEC-HPLC; type: physicochemical
Description: This frozen emulsion was then lyophilized for 48 hrs to remove both the aqueous and organic solvent.

[2] = Oral GH delivery, serum hGH by ELISA; type: in vivo; conditions: rats, single oral dose by gavage in corn oil
Description: CD male rats (250 to 300 g) were obtained from Charles River Laboratories. Group 1 was fed 1.24 mg of stock GH emulsified in 1 ml of USP corn oil; Group 2 was fed 50 mg of PIN microspheres (2B43099-2.47% Zn-GH in PLGA) in 1 ml of corn oil; Group 3 was fed 50 mg of PIN microspheres (2B51799 - 2.47% Stock GH, 16% FeO in PLGA) in 1 ml of corn oil. Microspheres were suspended in corn oil by vortexing followed by brief (5 s) probe sonication. Stock GH was similarly emulsified in corn oil by vortexing and probe sonication. Animals were fasted overnight, briefly anesthetized with methoxyfluorane, and formulations fed via gavage with an 18-G stainless steel feeding tube and serum from all animals obtained according to the following schedule: −1 hr (pre-feeding control), 0.5 hr, 1 hr, 2 hr, 3 hr, 4 hr, 6 hr, 24 hr, 48 hr, and 72 hr post-feeding. Serum samples obtained via tail bleeding were analyzed for hGH using the hGH specific ELISA (DSL Inc, Webster. Tex.) according to manufacturer's protocols.

hGH: Stock human growth hormone (20 mg/ml) incorporated into PLGA 50:50 by FLM under varied conditions
aggregation of best formulation combination ([1]; ethyl acetate, stock GH containing 0.2% F127, agitation time 15 s): 0.7% | Percent Aggregation (SEC-HPLC) ([1]; ethyl acetate, 15 s vortex, 0.05% F127 + T20, 24 hr): 1.9% | Percent Aggregation (SEC-HPLC) ([1]; ethyl acetate, 15 s vortex, 0.2% F127 + T20, 1 hr): 1.0/1.0% | Percent Aggregation (SEC-HPLC) ([1]; ethyl acetate, 15 s vortex, 0.2% F127 + T20, 24 hr): 1.0/1.0% | Percent Aggregation (SEC-HPLC) ([1]; ethyl acetate, 15 s vortex, 0.2% F127, 1 hr): 0.7/0.7% | Percent Aggregation (SEC-HPLC) ([1]; ethyl acetate, 15 s vortex, 0.2% F127, 24 hr): 0.7/0.7% | Percent Aggregation (SEC-HPLC) ([1]; ethyl acetate, 60 s vortex, 0.05% F127 + T20, 1 hr): 0.9% | Percent Aggregation (SEC-HPLC) ([1]; ethyl acetate, 60 s vortex, 0.05% F127 + T20, 24 hr): 1.0% | Percent Aggregation (SEC-HPLC) ([1]; ethyl acetate, 60 s vortex, 0.05% F127, 24 hr): 2.0% | Percent Aggregation (SEC-HPLC) ([1]; ethyl acetate, 60 s vortex, 0.2% F127 + T20, 1 hr): 1.1/1.1% | Percent Aggregation (SEC-HPLC) ([1]; ethyl acetate, 60 s vortex, 0.2% F127 + T20, 24 hr): 1.1/1.1% | Percent Aggregation (SEC-HPLC) ([1]; ethyl acetate, 60 s vortex, 0.2% F127, 1 hr): 1.5% | Percent Aggregation (SEC-HPLC) ([1]; ethyl acetate, 60 s vortex, 0.2% F127, 24 hr): 1.7% | Percent Aggregation (SEC-HPLC) ([1]; methylene chloride, 15 s vortex, 0.05% F127 + T20, 1 hr): 2.2% | Percent Aggregation (SEC-HPLC) ([1]; methylene chloride, 15 s vortex, 0.05% F127 + T20, 24 hr): 2.7% | Percent Aggregation (SEC-HPLC) ([1]; methylene chloride, 15 s vortex, 0.05% F127, 1 hr): 2.0% | Percent Aggregation (SEC-HPLC) ([1]; methylene chloride, 15 s vortex, 0.05% F127, 24 hr): 4.5% | Percent Aggregation (SEC-HPLC) ([1]; methylene chloride, 15 s vortex, 0.2% F127 + T20, 1 hr): 3.7% | Percent Aggregation (SEC-HPLC) ([1]; methylene chloride, 15 s vortex, 0.2% F127 + T20, 24 hr): 8.8% | Percent Aggregation (SEC-HPLC) ([1]; methylene chloride, 15 s vortex, 0.2% F127, 1 hr): 2.4% | Percent Aggregation (SEC-HPLC) ([1]; methylene chloride, 15 s vortex, 0.2% F127, 24 hr): 5.0% | Percent Aggregation (SEC-HPLC) ([1]; methylene chloride, 60 s vortex, 0.05% F127 + T20, 1 hr): 4.4% | Percent Aggregation (SEC-HPLC) ([1]; methylene chloride, 60 s vortex, 0.05% F127 + T20, 24 hr): 11.4% | Percent Aggregation (SEC-HPLC) ([1]; methylene chloride, 60 s vortex, 0.05% F127, 24 hr): 4.8% | Percent Aggregation (SEC-HPLC) ([1]; methylene chloride, 60 s vortex, 0.2% F127 + T20, 1 hr): 10.2% | Percent Aggregation (SEC-HPLC) ([1]; methylene chloride, 60 s vortex, 0.2% F127 + T20, 24 hr): 12.9% | Percent Aggregation (SEC-HPLC) ([1]; methylene chloride, 60 s vortex, 0.2% F127, 1 hr): 4.2% | Percent Aggregation (SEC-HPLC) ([1]; methylene chloride, 60 s vortex, 0.2% F127, 24 hr): 7.0%

stock GH: 1.24 mg of stock GH emulsified in 1 ml of USP corn oil
serum hGH Cmax [2]: 3.37 ± 2.14 ng/mL
